# Data as given in the supplement of paper PMC10126150.
# ± gives the standard deviation of the averaged measurements.
# System: ATP
# Test: switch fluorescence ratio, 500 uM ATP over buffer (Cy3 cluster intensity, sum of 5 cycles each) (fold (ratio)); higher = stronger signal-on switching upon ATP binding; sequences stand for … in TCGTCGGCAGCGTCAGATGTGTATAAGAGACAGTTTTTTTTTTTTTTTTTTTTTTTTT…TC
# Conditions: aptamer strand: ATP DNA aptamer (quencher-CACCTGGGGGAGTATTGCGGAGGAAGG + anchor), 100 nM annealed; ATP concentration: 500 uM
# Method in brief: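 Clusters with intensities outside 100-1000 RFU were excluded. The remaining Cy3-labelled switching-strand clusters on a modified Illumina MiSeq flow-cell had been annealed to 100 nM quencher-labelled ATP aptamer and imaged in selection buffer, then after 15 min with 500 uM ATP at 22 °C, for five cycles separated by NaOH stripping and re-annealing. The fluorescence ratio, averaged per switch-domain sequence, is each cluster's summed target-cycle Cy3 intensity over its summed buffer-cycle Cy3 intensity.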
# 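Also: ATP exposure 15 min at 22 °C before imaging.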
sequence,measurement,value
GGTTAGCGG,switch fluorescence ratio,0.9599 ± 0.0026
GGTCGGGGAG,switch fluorescence ratio,0.9987 ± 0.0028
TTAAATAATT,switch fluorescence ratio,0.992 ± 0.019
ATGTACTGGG,switch fluorescence ratio,1.08 ± 0.043
ACTCAGGTCC,switch fluorescence ratio,1.077 ± 0.0054
TTCCGGAAAA,switch fluorescence ratio,1.01 ± 0.05
GACTTTGGGA,switch fluorescence ratio,0.999 ± 0.023
GGTATTAGGA,switch fluorescence ratio,0.9669 ± 0.0076
GCTGTTTCCC,switch fluorescence ratio,0.989 ± 0.024
TCCGGATCGG,switch fluorescence ratio,1.03 ± 0.012
TCGGCATTAA,switch fluorescence ratio,1.37 ± 0.1
CGTCAACTGC,switch fluorescence ratio,1.17 ± 0.039
TGTGGTGTGC,switch fluorescence ratio,1.01 ± 0.022
TAGAGGCGAA,switch fluorescence ratio,1 ± 0.011
TTAAGTCATT,switch fluorescence ratio,0.986 ± 0.039
AAGAGTCGGG,switch fluorescence ratio,0.972 ± 0.051
GGGGTCGGGC,switch fluorescence ratio,0.998 ± 0.015
TTTTTGGTCC,switch fluorescence ratio,0.992 ± 0.011
GATTCTCCGT,switch fluorescence ratio,1.16 ± 0.016
TACGGGCGGC,switch fluorescence ratio,1.05 ± 0.016
CGGGGCTATT,switch fluorescence ratio,0.999 ± 0.03
GTTGTGCTTT,switch fluorescence ratio,0.984 ± 0.011
ACCATATTTT,switch fluorescence ratio,1.073 ± 0.0094
TCTTAGGACG,switch fluorescence ratio,0.997 ± 0.036
TTAAATCGGC,switch fluorescence ratio,0.991 ± 0.043
AAGTACGGTG,switch fluorescence ratio,1.19 ± 0.089
CAAATAAGTC,switch fluorescence ratio,0.998 ± 0.013
GAGGTTTAGA,switch fluorescence ratio,0.98753 ± 9.8e-05
ACTGGTGGTG,switch fluorescence ratio,0.97817 ± 0.0005
AATCCCTGGG,switch fluorescence ratio,1.07 ± 0.033
GAGGGGGACT,switch fluorescence ratio,1.13 ± 0.19
TGTTGGGGGC,switch fluorescence ratio,1.03 ± 0.12
TTGTGAGGGT,switch fluorescence ratio,0.981 ± 0.033
AGGTGCAGCA,switch fluorescence ratio,1.06 ± 0.15
AGATTAGGAC,switch fluorescence ratio,0.97145 ± 0.00024
CATAGGGGTA,switch fluorescence ratio,1.01 ± 0.04
TTGCATTTTC,switch fluorescence ratio,1.09 ± 0.11
CGGTTGATGC,switch fluorescence ratio,0.997 ± 0.059
TGGGTGCGCA,switch fluorescence ratio,1.03 ± 0.025
TTTTGTTGCT,switch fluorescence ratio,0.956 ± 0.037
GAATGTTTGG,switch fluorescence ratio,0.991 ± 0.011
CTGTCTGGGT,switch fluorescence ratio,0.993 ± 0.029
TTATGTATGC,switch fluorescence ratio,0.95 ± 0.08
TGGGGGACTT,switch fluorescence ratio,0.99 ± 0.039
TTATAGGGGT,switch fluorescence ratio,1.09 ± 0.057
CGAGTTTGAC,switch fluorescence ratio,0.977 ± 0.019
TGAATCATGG,switch fluorescence ratio,0.972 ± 0.022
TATTTTAATC,switch fluorescence ratio,1.04 ± 0.059
CAAACTGTCA,switch fluorescence ratio,1.07 ± 0.06
CTTTGGGGAC,switch fluorescence ratio,1.055 ± 0.006
AGACGGTCTG,switch fluorescence ratio,0.973 ± 0.0098
GGGGGGGGG,switch fluorescence ratio,1 ± 0.04
ATAACTTTTT,switch fluorescence ratio,0.992 ± 0.054
GTTTATTACT,switch fluorescence ratio,1.01 ± 0.021
AGGGTAGATT,switch fluorescence ratio,0.977 ± 0.054
CCTCCAGGTT,switch fluorescence ratio,3.69 ± 3.2
AGTCCGGGAT,switch fluorescence ratio,1.07 ± 0.044
AAGATGCGTA,switch fluorescence ratio,0.978 ± 0.016
TTTGGCTAAG,switch fluorescence ratio,0.976 ± 0.027
GTTGCCGGGG,switch fluorescence ratio,1.01 ± 0.015
TTACCATTGG,switch fluorescence ratio,1.04 ± 0.082
CGGGGCGGCG,switch fluorescence ratio,0.986 ± 0.002
CTGGCCAAGT,switch fluorescence ratio,0.999 ± 0.02
TTTGGTTAC,switch fluorescence ratio,1.05 ± 0.023
ACTTTTTCGG,switch fluorescence ratio,0.9909 ± 0.006
CGGAAGAATT,switch fluorescence ratio,0.99422 ± 0.00026
CCAGGTTTTT,switch fluorescence ratio,1.04 ± 0.017
GTGCCCTGAC,switch fluorescence ratio,1.29 ± 0.041
TTTCGGACAA,switch fluorescence ratio,1.46 ± 0.5
TTTTTCAGTT,switch fluorescence ratio,1 ± 0.033
GTTGATGGAG,switch fluorescence ratio,0.992 ± 0.0091
AGCGAATATT,switch fluorescence ratio,1.08 ± 0.098
CGACGAGTAA,switch fluorescence ratio,1.32 ± 0.36
CAGGGGGGAG,switch fluorescence ratio,0.992 ± 0.035
AGTATAACGA,switch fluorescence ratio,1.06 ± 0.016
ATTTCTTGGT,switch fluorescence ratio,0.9751 ± 0.0083
AAAGGCTCGG,switch fluorescence ratio,0.978 ± 0.022
AGTTTTGTTA,switch fluorescence ratio,1.02 ± 0.019
CAATTTCAGC,switch fluorescence ratio,0.999 ± 0.025
CTCAGTGGTA,switch fluorescence ratio,1.014 ± 0.0043
AAATAGGTGA,switch fluorescence ratio,1.05 ± 0.025
TGCTCTTTGG,switch fluorescence ratio,1 ± 0.025
ACAAGTGGAC,switch fluorescence ratio,1.033 ± 0.0026
TAATTATCTT,switch fluorescence ratio,0.979 ± 0.058
TTTGGGTTGA,switch fluorescence ratio,1.03 ± 0.017
CGGTCAACG,switch fluorescence ratio,0.993 ± 0.022
AGGGGTTATA,switch fluorescence ratio,1.01 ± 0.024
TTGATAGGGT,switch fluorescence ratio,1.01 ± 0.026
TTAAAAGCGG,switch fluorescence ratio,1.03 ± 0.013
TAGTTTGGAA,switch fluorescence ratio,0.984 ± 0.04
GATGTGCACC,switch fluorescence ratio,0.983 ± 0.027
AAGGTTTCGG,switch fluorescence ratio,0.985 ± 0.038
TATTCGCCTT,switch fluorescence ratio,1.11 ± 0.12
AAAGTGTTTT,switch fluorescence ratio,0.995 ± 0.051
TGTTTGAAAT,switch fluorescence ratio,0.998 ± 0.034
TTTTAGTTCG,switch fluorescence ratio,1 ± 0.028
GCGGGGGTCA,switch fluorescence ratio,0.974 ± 0.05
TTTTCGGTTA,switch fluorescence ratio,1.01 ± 0.015
CTTGGGTTGC,switch fluorescence ratio,0.9961 ± 0.0092
CCGAATTCT,switch fluorescence ratio,1.13 ± 0.029
TCGGCCGGGG,switch fluorescence ratio,1.02 ± 0.015
CCATAGCTCA,switch fluorescence ratio,2.016 ± 0.016
CGGGAAGTTT,switch fluorescence ratio,0.999 ± 0.032
GAAATAACTC,switch fluorescence ratio,1.36 ± 0.43
GCCTTTCAGA,switch fluorescence ratio,1.005 ± 0.0053
TTGCTTATCG,switch fluorescence ratio,1.021 ± 0.0047
ACATTTGGGT,switch fluorescence ratio,1.0104 ± 0.00044
GCGTAACCGT,switch fluorescence ratio,0.99 ± 0.038
ATCGACGTGT,switch fluorescence ratio,1.02 ± 0.02
GGTGTTGGGG,switch fluorescence ratio,1.0211 ± 3.7e-05
GGAAGGGGTT,switch fluorescence ratio,1.03 ± 0.089
TATATATAAC,switch fluorescence ratio,1.006 ± 0.0081
GCAGGCTACA,switch fluorescence ratio,1.02 ± 0.019
AGTTTACTGG,switch fluorescence ratio,0.9626 ± 0.0022
ATGAAGCGGT,switch fluorescence ratio,1.04 ± 0.083
GTGATGGGGG,switch fluorescence ratio,1.01 ± 0.051
TTGAGGTCGG,switch fluorescence ratio,1.005 ± 0.0066
GGGATATCAG,switch fluorescence ratio,0.994 ± 0.017
CATACGGGTA,switch fluorescence ratio,1.042 ± 0.00018
TTCGGGATCG,switch fluorescence ratio,0.981 ± 0.057
GTTTACTCGT,switch fluorescence ratio,1.02 ± 0.012
GTCGGTAAGG,switch fluorescence ratio,0.982 ± 0.021
TGGGTGAAGG,switch fluorescence ratio,0.999 ± 0.022
CGGTTGTGGG,switch fluorescence ratio,0.996 ± 0.018
TCGGCTTAGG,switch fluorescence ratio,0.987 ± 0.048
TCGCGACTTG,switch fluorescence ratio,0.9946 ± 0.0054
TGAGTTAAAG,switch fluorescence ratio,0.9876 ± 0.0082
TTGATTTAGG,switch fluorescence ratio,0.995 ± 0.028
GCTAGTTGGG,switch fluorescence ratio,0.9998 ± 0.0015
TTTTTTGGCC,switch fluorescence ratio,0.993 ± 0.036
CGGGTGTGCG,switch fluorescence ratio,0.955 ± 0.088
TTGGTCCGGT,switch fluorescence ratio,0.988 ± 0.018
GCCTTGGGGG,switch fluorescence ratio,1 ± 0.028
GTATTGCTTT,switch fluorescence ratio,0.963 ± 0.012
TCAATTATTT,switch fluorescence ratio,1 ± 0.023
AGAAAAGGGC,switch fluorescence ratio,1.026 ± 0.0014
TTGTTACTGG,switch fluorescence ratio,1.01 ± 0.03
TCAGGGACAA,switch fluorescence ratio,1.01 ± 0.013
GGCACCTACG,switch fluorescence ratio,1.53 ± 0.14
TCGGTCCGAT,switch fluorescence ratio,0.9997 ± 0.005
GGACCGGCCG,switch fluorescence ratio,1.01 ± 0.076
CGGCTTAGAT,switch fluorescence ratio,0.984 ± 0.028
TCGGGGCCGT,switch fluorescence ratio,0.971 ± 0.059
TCGTAGACGT,switch fluorescence ratio,1.01 ± 0.011
GCTGTGGTAC,switch fluorescence ratio,1.188 ± 0.0086
CGGATGTTAC,switch fluorescence ratio,1.171 ± 0.0093
ATAGCGGAAT,switch fluorescence ratio,1.007 ± 0.01
GAAGGGGTCC,switch fluorescence ratio,1 ± 0.042
CTGGTCGAAT,switch fluorescence ratio,1 ± 0.017
TATTCTCTTT,switch fluorescence ratio,1.04 ± 0.081
ATTCATGGGG,switch fluorescence ratio,0.98 ± 0.019
TTGCATTATA,switch fluorescence ratio,1.07 ± 0.054
GTGAGGGAGT,switch fluorescence ratio,1.008 ± 0.006
